In article PMC4935968, “Engineering biosynthesis of the anticancer alkaloid noscapine in yeast” (Nature Communications, 2016):

Target: T1, hexa-histidine tagged PsMT2 (Papaver somniferum, UniProt I3PLQ6 1-356)
T1 construct: PsMT2, O-methyltransferase of the noscapine gene cluster of Papaver somniferum; gene codon-optimised for S. cerevisiae, amplified with primers PsMT2-pET-F/R and inserted into pET28a; Printed mass of the His-tagged protein is 40.09 kDa; also called His-tagged PsMT2; source: E. coli BL21(DE3), co-expressed with T7-tagged PsMT3 or Ps6OMT; complex purified (Ni-NTA agarose, then T7 tag antibody …)
T1 sequence (looked up): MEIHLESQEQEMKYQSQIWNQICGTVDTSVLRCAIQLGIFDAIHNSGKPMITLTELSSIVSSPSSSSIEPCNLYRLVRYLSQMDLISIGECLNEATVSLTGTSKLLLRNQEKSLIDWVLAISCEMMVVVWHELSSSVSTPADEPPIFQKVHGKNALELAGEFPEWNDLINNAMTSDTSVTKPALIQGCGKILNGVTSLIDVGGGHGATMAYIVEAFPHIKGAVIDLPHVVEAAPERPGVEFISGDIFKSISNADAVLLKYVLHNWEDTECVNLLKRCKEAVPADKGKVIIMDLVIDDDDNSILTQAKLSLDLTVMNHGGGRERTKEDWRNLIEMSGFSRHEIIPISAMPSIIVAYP
Assay: pull-down; tandem affinity co-purification from lysate of E. coli co-expressing both proteins: Ni-NTA agarose (His-tagged PsMT2), eluate then on T7 tag antibody agarose (T7-tagged partner); product analysed by SDS-PAGE and western blot with Anti-6X His tag and Anti-T7 tag antibodies
Settings: partners not purified

B1: Ps6OMT with T7 tag (enzyme, Papaver somniferum, UniProt Q6WUC1 1-346, looked up)
chain: METVSKIDQQNQAKIWKQIYGFAESLVLKCAVQLEIAETLHNNVKPMSLSELASKLPVAQPVNEDRLFRIMRYLVHMELFKIDATTQKYSLAPPAKYLLRGWEKSMVDSILCINDKDFLAPWHHLGDGLTGNCDAFEKALGKSIWVYMSVNPEKNQLFNAAMACDTRLVTSALANECKSIFSDGISTLVDVGGGTGTAVKAISKAFPDIKCTIYDLPHVIADSPEIPNITKISGDMFKSIPSADAIFMKCILHDWNDDECIQILKRCKEALPKGGKVIIVDVVIDMDSTHPYAKIRLTLDLDMMLNTGGKERTKEEWKTLFDAAGFASHKVTQISAVQSVIEAYPY
notes: norcoclaurine 6-O-methyltransferase from Papaver somniferum (Ps6OMT); also called norcoclaurine 6-O-methyltransferase from P. somniferum; source: E. coli, co-transformed with pCS3306 (His-tagged PsMT2) and pCS3534; complex purified by a similar procedure as PsMT2/PsMT3 (Ni-NTA agarose, then T7 tag antibody agarose); not shown: T7 tag, C-terminal, kept
- binding result: binds
